Laboratory results taken from the supplement of paper PMC10065799, “High-throughput profiling of sequence recognition by tyrosine kinases and SH2 domains using bacterial peptide display” (eLife, 2023).

How the values were obtained:
AncSZ = test: phosphorylation enrichment, bacterial display (enrichment ratio); higher = better substrate or ligand; peptides without Tyr show the background
EPHB1 = EPHB1 (UniProt P54762); test: as above
EPHB2 = EPHB2 (UniProt P29323); test: as above
FGFR1 = FGFR1 (UniProt P11362); test: as above
FGFR3 = FGFR3 (UniProt P22607); test: as above
Fer (mouse) = test: as above
Fes = Fes (UniProt P07332); test: as above
Fyn = Fyn (UniProt P06241); test: as above
Hck = Hck (UniProt P08631); test: as above
Jak2 = Jak2 (UniProt O60674); test: as above
MERTK = MERTK (UniProt Q12866); test: as above
c-Abl (mouse) = test: as above
c-Src = test: as above
Grb2 SH2 = Grb2 SH2 (UniProt P62993); test: SH2 binding enrichment of the phosphorylated peptide, bacterial display (enrichment ratio); higher = better substrate or ligand; peptides without Tyr show the background
SHP2-C SH2 = test: as above
c-Src SH2 = test: as above
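Throughout, for SH2 binding enrichment of the phosphorylated peptide, bacterial display: peptide library displayed on the E. coli surface as eCPX fusions, selected cells deep-sequenced, score is each peptide's frequency after selection divided by its frequency in the input.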
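Throughout, for phosphorylation enrichment, bacterial display: 11-residue human phosphosite peptides and single-mutation variants displayed on the E. coli surface, counted by deep sequencing, each peptide's frequency after selection divided by its frequency in the unselected input library; frequency after pTyr selection over input frequency; kinase dosed for 20-30% of maximal phosphorylation in three min.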

Chain of EPHB2 (P29323 whole entry, looked up): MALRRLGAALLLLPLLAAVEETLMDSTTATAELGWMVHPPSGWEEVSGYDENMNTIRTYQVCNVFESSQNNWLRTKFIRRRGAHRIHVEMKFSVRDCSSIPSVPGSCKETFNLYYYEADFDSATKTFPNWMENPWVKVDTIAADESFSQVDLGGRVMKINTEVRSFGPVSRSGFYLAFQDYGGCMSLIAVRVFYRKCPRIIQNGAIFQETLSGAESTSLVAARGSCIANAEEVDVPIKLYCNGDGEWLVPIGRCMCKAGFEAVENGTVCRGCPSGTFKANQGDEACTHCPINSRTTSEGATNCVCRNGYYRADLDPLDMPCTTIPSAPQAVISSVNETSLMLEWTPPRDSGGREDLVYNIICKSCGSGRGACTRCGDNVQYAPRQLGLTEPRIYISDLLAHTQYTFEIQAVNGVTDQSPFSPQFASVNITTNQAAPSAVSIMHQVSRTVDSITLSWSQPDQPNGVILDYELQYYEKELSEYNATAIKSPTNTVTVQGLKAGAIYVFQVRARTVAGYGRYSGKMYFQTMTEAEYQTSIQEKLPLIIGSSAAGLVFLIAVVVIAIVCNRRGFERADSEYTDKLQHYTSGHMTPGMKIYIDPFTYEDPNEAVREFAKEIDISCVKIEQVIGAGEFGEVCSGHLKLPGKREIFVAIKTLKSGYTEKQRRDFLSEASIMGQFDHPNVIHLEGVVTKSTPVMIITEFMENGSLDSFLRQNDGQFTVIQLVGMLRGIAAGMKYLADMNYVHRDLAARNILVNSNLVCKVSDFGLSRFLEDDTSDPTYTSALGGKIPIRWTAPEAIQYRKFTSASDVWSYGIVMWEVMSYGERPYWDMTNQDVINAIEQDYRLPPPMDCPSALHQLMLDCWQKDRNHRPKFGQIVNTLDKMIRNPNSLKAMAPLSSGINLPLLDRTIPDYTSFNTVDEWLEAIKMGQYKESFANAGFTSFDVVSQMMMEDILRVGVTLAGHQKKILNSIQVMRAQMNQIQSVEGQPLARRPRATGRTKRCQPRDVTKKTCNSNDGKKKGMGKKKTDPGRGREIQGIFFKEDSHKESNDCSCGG
Chain of FGFR3 (P22607 whole entry, looked up): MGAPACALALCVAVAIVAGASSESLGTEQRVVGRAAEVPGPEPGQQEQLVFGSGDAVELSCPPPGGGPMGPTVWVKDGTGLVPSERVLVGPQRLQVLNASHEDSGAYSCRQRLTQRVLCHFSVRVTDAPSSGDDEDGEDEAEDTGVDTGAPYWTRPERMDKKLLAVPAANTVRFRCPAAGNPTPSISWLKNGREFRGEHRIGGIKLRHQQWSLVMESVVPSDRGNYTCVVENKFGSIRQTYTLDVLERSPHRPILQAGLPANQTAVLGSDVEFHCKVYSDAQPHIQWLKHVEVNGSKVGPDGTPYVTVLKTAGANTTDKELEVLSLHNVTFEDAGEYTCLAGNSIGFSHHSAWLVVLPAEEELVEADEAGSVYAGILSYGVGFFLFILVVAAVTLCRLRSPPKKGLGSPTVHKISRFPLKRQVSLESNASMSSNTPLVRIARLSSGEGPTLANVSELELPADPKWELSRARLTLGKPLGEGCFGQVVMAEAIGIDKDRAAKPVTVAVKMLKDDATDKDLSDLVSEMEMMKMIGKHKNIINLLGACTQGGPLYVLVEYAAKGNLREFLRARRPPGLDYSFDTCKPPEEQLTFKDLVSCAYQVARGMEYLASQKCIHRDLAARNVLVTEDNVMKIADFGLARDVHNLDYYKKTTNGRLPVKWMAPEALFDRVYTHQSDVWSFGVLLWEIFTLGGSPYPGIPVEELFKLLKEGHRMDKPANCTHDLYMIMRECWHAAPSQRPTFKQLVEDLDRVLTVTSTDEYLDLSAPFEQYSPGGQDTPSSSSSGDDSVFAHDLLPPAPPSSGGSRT
Chain of Hck (P08631 whole entry, looked up): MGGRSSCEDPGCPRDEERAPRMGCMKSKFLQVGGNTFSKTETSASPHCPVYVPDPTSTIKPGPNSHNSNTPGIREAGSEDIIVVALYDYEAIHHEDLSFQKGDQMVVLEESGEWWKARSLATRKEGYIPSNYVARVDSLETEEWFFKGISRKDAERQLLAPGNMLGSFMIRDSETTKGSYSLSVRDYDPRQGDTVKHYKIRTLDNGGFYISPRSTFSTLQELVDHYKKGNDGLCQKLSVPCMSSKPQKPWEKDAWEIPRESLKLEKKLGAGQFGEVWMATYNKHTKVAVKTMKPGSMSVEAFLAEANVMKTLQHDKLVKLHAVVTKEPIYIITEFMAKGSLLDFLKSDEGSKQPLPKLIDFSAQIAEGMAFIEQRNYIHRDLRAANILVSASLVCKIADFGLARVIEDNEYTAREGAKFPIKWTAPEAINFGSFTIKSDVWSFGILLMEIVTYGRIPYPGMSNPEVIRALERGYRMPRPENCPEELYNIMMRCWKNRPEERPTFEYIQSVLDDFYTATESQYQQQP
Chain of Jak2 (O60674 whole entry, looked up): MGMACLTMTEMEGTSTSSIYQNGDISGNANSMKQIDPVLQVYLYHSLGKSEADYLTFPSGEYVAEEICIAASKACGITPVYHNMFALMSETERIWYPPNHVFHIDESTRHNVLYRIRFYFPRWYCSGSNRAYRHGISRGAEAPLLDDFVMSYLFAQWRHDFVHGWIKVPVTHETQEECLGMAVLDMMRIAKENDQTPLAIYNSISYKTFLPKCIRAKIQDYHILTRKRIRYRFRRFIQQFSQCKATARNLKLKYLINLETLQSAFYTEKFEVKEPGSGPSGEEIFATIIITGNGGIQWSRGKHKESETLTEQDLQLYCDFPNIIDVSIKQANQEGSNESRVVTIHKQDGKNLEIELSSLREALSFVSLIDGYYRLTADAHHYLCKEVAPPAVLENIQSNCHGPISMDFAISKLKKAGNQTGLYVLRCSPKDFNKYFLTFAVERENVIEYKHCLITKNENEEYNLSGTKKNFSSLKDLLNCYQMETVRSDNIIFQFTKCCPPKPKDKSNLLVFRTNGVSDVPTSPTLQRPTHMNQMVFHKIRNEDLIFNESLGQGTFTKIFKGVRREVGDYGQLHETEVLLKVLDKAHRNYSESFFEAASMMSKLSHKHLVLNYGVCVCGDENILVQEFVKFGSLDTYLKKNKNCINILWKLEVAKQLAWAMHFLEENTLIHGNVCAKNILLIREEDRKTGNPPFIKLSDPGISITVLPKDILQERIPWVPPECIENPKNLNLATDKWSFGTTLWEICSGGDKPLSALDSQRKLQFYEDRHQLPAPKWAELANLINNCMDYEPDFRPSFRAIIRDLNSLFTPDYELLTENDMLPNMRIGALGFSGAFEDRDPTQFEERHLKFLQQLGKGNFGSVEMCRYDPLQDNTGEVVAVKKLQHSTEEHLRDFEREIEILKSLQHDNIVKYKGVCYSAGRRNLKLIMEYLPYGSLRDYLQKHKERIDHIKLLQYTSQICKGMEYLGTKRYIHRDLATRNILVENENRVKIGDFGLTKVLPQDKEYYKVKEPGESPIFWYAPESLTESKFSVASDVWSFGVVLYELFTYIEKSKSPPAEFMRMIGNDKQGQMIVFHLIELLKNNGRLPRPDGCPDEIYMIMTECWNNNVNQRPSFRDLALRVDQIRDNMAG
Chain of Fes (P07332 whole entry, looked up): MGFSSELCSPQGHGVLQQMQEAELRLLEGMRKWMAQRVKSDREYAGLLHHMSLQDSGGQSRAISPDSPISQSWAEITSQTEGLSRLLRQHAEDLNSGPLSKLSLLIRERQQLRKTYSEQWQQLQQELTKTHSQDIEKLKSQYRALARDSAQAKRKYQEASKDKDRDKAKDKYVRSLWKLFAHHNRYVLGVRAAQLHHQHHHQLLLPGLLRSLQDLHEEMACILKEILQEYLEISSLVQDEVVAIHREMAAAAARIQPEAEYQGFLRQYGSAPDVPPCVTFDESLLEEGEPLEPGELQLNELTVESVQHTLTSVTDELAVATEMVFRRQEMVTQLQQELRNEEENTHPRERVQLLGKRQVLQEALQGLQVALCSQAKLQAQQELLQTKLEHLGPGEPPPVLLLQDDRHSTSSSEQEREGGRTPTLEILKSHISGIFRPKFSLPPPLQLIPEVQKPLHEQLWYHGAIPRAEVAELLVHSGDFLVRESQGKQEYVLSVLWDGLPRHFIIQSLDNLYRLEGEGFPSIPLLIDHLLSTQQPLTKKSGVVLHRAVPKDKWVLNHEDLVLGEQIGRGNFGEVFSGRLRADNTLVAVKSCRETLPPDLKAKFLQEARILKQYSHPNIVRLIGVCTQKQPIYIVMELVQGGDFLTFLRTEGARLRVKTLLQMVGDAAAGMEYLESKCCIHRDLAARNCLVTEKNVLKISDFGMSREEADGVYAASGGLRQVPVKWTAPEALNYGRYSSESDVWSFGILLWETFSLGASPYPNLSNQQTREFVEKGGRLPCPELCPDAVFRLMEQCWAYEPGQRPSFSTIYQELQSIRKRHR
Chain of Grb2 SH2 (P62993 whole entry, looked up): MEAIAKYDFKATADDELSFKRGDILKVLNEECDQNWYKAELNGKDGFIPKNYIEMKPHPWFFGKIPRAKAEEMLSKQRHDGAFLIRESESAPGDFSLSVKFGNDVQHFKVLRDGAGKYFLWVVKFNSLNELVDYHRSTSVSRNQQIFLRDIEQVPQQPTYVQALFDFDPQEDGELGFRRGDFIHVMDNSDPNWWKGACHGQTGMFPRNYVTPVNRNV

Sequence	phosphorylation enrichment (AncSZ)	phosphorylation enrichment (EPHB1)	phosphorylation enrichment (EPHB2)	phosphorylation enrichment (FGFR1)	phosphorylation enrichment (FGFR3)	phosphorylation enrichment (Fer (mouse))	phosphorylation enrichment (Fes)	phosphorylation enrichment (Fyn)	phosphorylation enrichment (Hck)	phosphorylation enrichment (Jak2)	phosphorylation enrichment (MERTK)	phosphorylation enrichment (c-Abl (mouse))	phosphorylation enrichment (c-Src)	SH2 binding enrichment (Grb2 SH2)	SH2 binding enrichment (SHP2-C SH2)	SH2 binding enrichment (c-Src SH2)
QDTSRYTVSNL [BIRC3_Y245]	0.971	0.675	0.467	0.516	0.71	0.501	0.824	0.523	0.467	0.644	0.567	0.804	0.617	0.879	0.54	0.453
QEGPEYWDEET [HLA-A_Y83_Q86E]	2.5	1.25	1.25	1.24	1.33	0.951	1.88	1.02	1.05	1.38	1.07	1.32	0.796	0.91	0.699	0.646
QEGPEYWDRNT [HLA-B_Y83]	1.36	0.9	0.741	1.03	0.913	0.557	1.29	0.763	0.685	0.806	0.49	0.757	0.485	0.856	0.711	0.377
QGIFGYHHFMQ [UFSP2_Y287_YF]	1.32	0.794	0.59	0.838	0.93	0.857	1.41	0.615	0.692	1.27	0.549	1.13	0.531	1.47	1.23	1.2
QKMADYSNKLH [PDPR_Y104_Y109H]	0.843	0.569	0.864	0.527	0.708	0.571	0.835	0.382	0.586	0.974	0.429	0.714	0.706	0.766	1.13	0.466
QLAPQYTFTQG [FLNA_Y1761_A1764T_YF]	1.27	0.621	0.845	0.918	0.982	0.58	1.09	1.09	0.748	1.21	1.1	1.49	1.12	0.915	0.5	0.635
QLAPQYTYAQG [FLNA_Y1761]	0.722	0.52	1.19	0.714	0.704	0.448	1.01	0.61	0.624	0.696	0.65	0.61	0.693	0.887	2.01	3.16
QLCVNYPGGYT [PROS1_Y259]	1.24	1.32	0.772	0.767	1.42	0.811	1.66	1	0.965	0.999	0.513	0.845	0.537	0.796	0.571	0.528
QLFGPYLRIHA [BSCL2_Y213_A212P_YF]	1.25	1.13	0.548	0.733	1.03	0.427	1.56	0.588	0.515	1.35	0.485	0.628	0.785	1.33	1.54	1.17
QLQTNYPSSDN [MAX_Y115]	0.951	0.583	0.766	0.642	0.725	0.551	1.14	0.476	0.527	0.773	0.657	1.02	0.628	0.752	0.513	0.546
QLRPGYFPIPV [BAG3_Y93_I94F]	0.6	0.448	0.585	0.593	0.56	0.42	0.679	0.536	0.466	0.981	0.531	0.53	0.423	0.697	0.906	0.475
QRASDYFSQQM [GBP6_Y333_A331S_YF]	1.29	1.56	0.854	0.684	1.39	0.667	1.49	0.662	0.866	1.02	0.711	1.28	0.632	0.668	0.964	0.464
QRHFVYFFSFL [PTEN_Y176_R173H_YF]	1.91	0.983	0.761	1.69	1.46	1.11	1.88	1.07	1.09	1.46	0.717	1.31	0.664	1.48	0.842	0.911
QRRYLYYYSYL [PTEN_Y176_V175L]	1.14	1.19	1.12	4.64	3.52	0.671	0.887	1.62	2.2	4.97	7.18	0.494	2.84	0.776	0.683	0.507
QRVLLYVRRET [GRHL3_Y518]	1.01	0.461	0.577	0.676	0.781	0.468	0.796	0.699	0.669	0.9	0.801	0.41	0.834	0.713	0.421	0.488
QSPQLYKQMCI [DARS1_Y253]	0.881	0.836	0.559	0.461	0.573	0.673	0.896	0.796	0.634	0.917	0.603	0.932	0.485	0.904	0.904	0.638
QTEAPYRFIFM [PTPN11_Y511_Q510P_YF]	1.34	0.728	0.626	2.71	1.98	4.48	1.34	0.637	0.645	1.55	0.595	1.34	0.777	0.662	0.751	0.367

Sequence	phosphorylation enrichment (AncSZ)	phosphorylation enrichment (EPHB1)	phosphorylation enrichment (EPHB2)	phosphorylation enrichment (FGFR1)	phosphorylation enrichment (FGFR3)	phosphorylation enrichment (Fer (mouse))	phosphorylation enrichment (Fes)	phosphorylation enrichment (Fyn)	phosphorylation enrichment (Hck)	phosphorylation enrichment (Jak2)	phosphorylation enrichment (MERTK)	phosphorylation enrichment (c-Abl (mouse))	phosphorylation enrichment (c-Src)	SH2 binding enrichment (Grb2 SH2)	SH2 binding enrichment (SHP2-C SH2)	SH2 binding enrichment (c-Src SH2)
QTWKTYVRHQQ [SFI1_Y164_Q167H]	0.901	0.548	0.509	0.535	2.21	0.465	1.29	0.476	0.486	1.3	0.49	1.36	0.769	1.38	0.946	0.784
QVMDGYPMPIG [MMP14_Y353]	0.861	0.673	0.511	0.529	0.629	0.53	0.964	0.564	0.601	0.987	0.906	1.03	0.517	0.675	0.423	0.572
QWQQLYDTLNA [EIF3M_Y351]	1.63	2.15	1.63	0.556	0.932	4.62	1.29	5.55	8.42	1.06	6.06	0.546	3.99	1.16	0.777	0.636
RAILLYEYVGK [NATD1_Y45_V42I]	3.29	33.9	46.9	4.68	5.74	26.3	7.22	11.2	15.5	2.34	19.1	2.4	11.1	1.56	1.25	1.55
RALLNYIASKF [GSTA3_Y74_I71L_YF]	1.13	0.763	0.624	0.423	0.767	0.553	0.956	0.385	0.721	0.536	0.597	0.638	0.587	0.842	0.579	0.49
RAMRRYLEWGE [ERBB3_Y680_R683W]	0.514	0.403	0.398	0.427	0.314	0.834	0.561	0.553	0.657	0.677	0.466	0.4	0.834	0.632	0.571	0.437
RDLHTYIMPAH [PNMT_Y256_R254H]	1.61	0.754	0.725	0.982	1.04	0.564	1.24	1.19	0.748	0.957	0.601	0.878	0.631	0.609	0.504	1.27
RDMNACIRPSP [MMAA_Y207_Y207C]	1.12	1.06	1.07	0.934	1.03	0.571	1.29	0.773	0.798	0.581	0.62	0.565	0.375	0.969	0.444	0.58
RELGEYALAEF [ALDH1A3_Y492_YF]	1.28	0.857	0.697	0.725	0.784	0.699	1.06	0.77	0.661	0.821	0.478	0.849	0.665	0.684	0.411	0.93
RENGPYFASFP [GDAP2_Y487_T489A_YF]	1.17	0.443	0.534	0.889	0.891	0.627	0.924	0.568	0.432	1.27	0.565	0.893	1.27	0.812	0.707	0.534
RENGPYFTSFP [GDAP2_Y487_YF]	1.03	0.417	0.645	0.764	0.825	0.591	1.17	0.479	0.49	0.991	0.568	1.19	0.971	0.878	0.773	0.714
RESYKYFPSSL [CXXC1_Y218]	1.18	0.651	0.475	0.51	1.09	0.82	0.841	0.843	0.685	1.15	0.69	0.77	0.861	1.06	0.697	0.688
RFGKVYKGHLF [ROR2_Y488]	0.806	0.377	0.767	0.661	0.754	0.585	0.924	0.717	0.604	0.803	1.02	1.69	0.86	1.13	0.61	0.331
RFLRGYHQDAY [HLA-A_Y137_R138H]	0.963	0.84	1.03	0.572	0.895	0.923	0.772	0.762	0.538	1.28	0.795	0.984	0.935	0.857	0.497	0.632
RGRSTYYWPRP [GAGE12J_Y9]	0.869	0.656	0.707	0.742	0.869	0.607	0.546	0.68	0.762	0.715	0.98	0.859	0.494	0.8	0.55	0.501
RGVTHYILQTF [SLC39A4_Y359]	1.09	0.394	0.703	0.664	0.905	0.582	1.27	0.499	0.711	1.24	0.553	0.944	0.48	1.33	1.2	1.05
